Measurements published in publication PMC7653511 (Journal of immunology (Baltimore, Md. : 1950), 2020).

Experiments:
[1] = molecular target: HLA-E*01:01 heavy chain with human β2-microglobulin (human); assay: HPLC size exclusion chromatography peptide competition binding assay
[2] = molecular target: HLA-E*01:03 heavy chain with human β2-microglobulin (human); assay: as above
[3] = molecular target: HLA-E*01:01 heavy chain with human β2-microglobulin (human); assay: HPLC size exclusion chromatograph
[4] = molecular target: HLA-E*01:03 heavy chain with human β2-microglobulin (human); assay: HPLC size exclusion chromatograph
HLA-E = details: no reference given; cited from earlier work
[5] = Aggregation of the proteins with norleucine fluorescent standard peptide; type: physicochemical; details: norleucine vs methionine in position 2 of fluorescent standard peptide
HLA-E*01:01 = HLA-E*01:01 (Homo sapiens, UniProt P13747, G128R); assay: UV-mediated peptide exchange binding assay; details: s/p ratio, at least two independent experiments
HLA-E*01:03 = HLA-E*01:03 (Homo sapiens, UniProt P13747); assay: UV-mediated peptide exchange binding assay; details: s/p ratio, at least two independent experiments
Mamu-E = type: binding, rhesus macaques; details: s/p ratio, at least two independent experiments
Qa-1^b = Qa-1^b (Mus musculus, UniProt P06339); assay: UV-mediated peptide exchange binding assay; design: species or system mice; details: s/p ratio, at least two independent experiments

Row | Substance | Effect of alanine substitution on binding (HLA-E*01:01) | Effect of alanine substitution on binding (HLA-E*01:03) | Effect of alanine substitution on binding (Mamu-E) | Effect of alanine substitution on binding (Qa-1^b) | further results
1 | Qdm (peptide) |  |  |  |  | IC50 [1]: < 100 µM; IC50 [2]: < 100 µM
2 | VL9 (peptide) |  |  |  |  | IC50 [3]: < 100 µM; IC50 [4]: < 100 µM
3 | VLAPRTLLL [pCMV] |  |  |  |  | Known binding to HLA-E of control peptides (HLA-E): high binding capacity to HLA-E
4 | VXAPCTLLL |  |  |  |  | Unspecific aggregation of the proteins [5]: reduced unspecific aggregation of the proteins
5 | pCMV P2-Ala: pCMV with Ala in position 2 (VAAPRTLLL) | considerable loss of binding | considerable loss of binding | considerable loss of binding | considerable loss of binding | 
6 | pCMV P7-Ala: pCMV with Ala in position 7 (VLAPRTALL) | complete or almost complete loss of binding | complete or almost complete loss of binding | complete or almost complete loss of binding | complete or almost complete loss of binding | 
7 | pCMV P9-Ala: pCMV with Ala in position 9 (VLAPRTLLA) | complete or almost complete loss of binding | complete or almost complete loss of binding | complete or almost complete loss of binding | complete or almost complete loss of binding | 
